We go through one substance from publication PMC9274624.

This experiment concerns the target Malayan pangolin ACE2 extracellular domain (residues 1-740) fused with the Fc domain of mouse IgG (Malayan pangolin). Kind of experiment: SPR. In general terms: Surface plasmon resonance follows binding to a sensor surface in real time, without labels.

“SARS-CoV-2 Delta RBD (residues 319-541) (from UniProt P0DTC2 319-541) (domain or fragment)” gave a Kd of 58.2 nM.

As a reminder, the Kd is the concentration at which binding is half-saturated. A low value points to tighter binding.
